# Assay results: patent US20250314655A1 (AUTOLUS, published 2025)
# No end group written: not given here.
# T1: TRBC2 peptide (biotinylated) (human, also: biotinylated (site not given here))
# T1 construct: In the monoclonal screen: biotinylated, 0.5 ug/ml on neutravidin-coated plates; In the polyclonal phage ELISA also presented as BSA or OA conjugate of the C-terminal-cysteine form; also called Bio-TRBC2; biotinylated TRBC2
# T1 peptide: VLEDLKNVFPPEVAV
# T2: TRBC1 peptide (biotinylated) (human, also: biotinylated (site not given here))
# T2 construct: In the monoclonal screen: biotinylated, 0.5 ug/ml on neutravidin-coated plates; In the polyclonal phage ELISA also presented as BSA or OA conjugate of the C-terminal-cysteine form; also called Bio-TRBC1; biotinylated TRBC1
# T2 peptide: VLEDLNKVFPPEVAV
# B1: CP_03_E05 (scFv, not shown: small tags and cut ends)
# scFv: EVQLVESGGGVVQPGGSLRLSCAASGFTFSSYAMSWVRQAPGKGLEWVSAISGSGGSTYYADSVKGRFSISRDNSKNTLYLQMNSLRAEDTAVYYCARTRSSGAFDIWGQGTLVTVSSGGGGSGGGGSGGGASNFMLTQPHSVSESPGKTVTISCTRSSGSIASKYVQWYQQRPGSSPTTVIYEDNQRPSGVPDRFSGSIDTSSNSASLTISGLRTEDEADYYCHSYDSNNHSVFGGGTKVTVLGQPAA
# notes: scFv from pSANG10-3F (His6, tri-FLAG), culture supernatant
# B2: CP_03_D05 (scFv, not shown: small tags and cut ends)
# scFv: QVQLVESGAEVKKPGASVKVSCKASGYTFTGYYMHWVRQAPGQGLEWMGRINPNSGGTNYAQKFQGRVTMTRDTSISTAYMELSRLRSDDTAVYYCASPRGRGSAFDIWGQGTLVTVSSGGGGSGGGGSGGGASSYELTQPPSVSVSPGQTATISCSGDQLGGKYGHWYQKKPGQSPVLVLYQDRKRPAGIPERFSGSSSGNTITLTISGTQAVDEADYYCQAWDTNLGGVFGGGTKVTVLGQPAA
# notes: as for B1
# B3: CP_03_H06 (scFv, not shown: small tags and cut ends)
# scFv: QVQLVESGGGLVKPGGSLRLSCAASGFTFSDYYMSWIRQAPGKGLEWVSYISSSGSTIYYADSVEGRFTISRDNAKNSLYLQMNSLRTEDTAVYYCARARVGGMDVWGQGTMVTVSSGGGGSGGGGSGGGASNFMLTQPHSVSESPGKTVTISCTRSSGSIASNYVQWYQQRPGSSPTTVIYEDNQRPSGVPDRFSGSIDSSSNSASLTISGLKTEDEADYYCQSFDADNLHVVFGGGTKLTVLGQPAA
# notes: as for B1
# B4: CP_03_C12 (scFv, not shown: small tags and cut ends)
# scFv: EVQLVQSGAEVKKPGASVKVSCKASGYTFTGYYMHWVRQAPGQGLEWMGWINPNSGGTNYAQKFQGRVTMTRDTSISTAYMELSSLRSEDTAVYYCARDTGPIDYWGQGTMVTVSSGGGGSGGGGSGGGASDIVMTQTPLSLSVTPGQPASISCKSSQSLLHSDGKTYLYWYLQKPGQPPQLLVYEVSNRFSGVPDKFSGSGSGTDFTLKISRVEAEDVGVYYCMQGIQLPPTFGGGTKVDIKRTAAA
# notes: as for B1
# B5: CP_03_G02 (scFv, not shown: small tags and cut ends)
# scFv: EVQLVQSGAEVKKPGSSVKVSCKASGGTFSSYAISWVRQAPGQGLEWMGIINPSGGSTSYAQKFQGRVTMTRDTSTSIVYMELSSLRSEDTAVYYCARGVWNSGSYLGFDYWGQGTLVTVSSGGGGSGGGGSGGGASDIQMTQSPSSLSASVGDRVTITCQASQDISNYLNWYQQKPGKAPKLLIYAASSLQSGVPSRFSGSGSGTDFTLTISSLQPEDFATYYCQQSYSTPLTFGGGTKLEIKRTAAA
# notes: as for B1
# B6: CP_03_D04 (scFv, not shown: small tags and cut ends)
# scFv: EVQLVESGGGVVQPGRSLRLSCAASGFTFSSYAMHWVRQAPGKGLEWVAVISYDGSNKYYADSVKGRFTISRDNSKNTLYLQMNSLRAEDTAVYYCARGGFTVPGGAFDIWGQGTLVTVSSGGGGSGGGGSGGGASNFMLTQPHSVSDSPGKTVTISCTRSSGRIGSNFVQWYQQRPGSSPTTVIYEDDQRPSGVPARFSGSIDSSSNSASLTISGLTTADEAGYYCQSYDASNVIFGGGTKLTVLGQPAA
# notes: as for B1
# B7: CP_03_F10 (scFv, not shown: small tags and cut ends)
# scFv: EVQLVESGAEVKKPGASVKVSCKASGYTFTGYYMHWVRQAPGQGLEWMGRINPNSGGTNYAQKFQGRVTMTRDTSISTAYMELSSLRSEDTAVYYCARFGERYAFDIWGQGTLVTVSSGGGGSGGGGSGGGASQSELTQPPSASGSPGQSVTISCTGTSTDVGAFHFVSWYQHTPGKAPKLLISEVRKRASGVPDRFSGSRSGNTASLTVSGLQSEDEADYFCSAYTGSNYVFGSGTKLTVLGQPAA
# notes: as for B1
# B8: CP_03_G09 (scFv, not shown: small tags and cut ends)
# scFv: QVQLQQSGPGLVKPSQTLSLTCAISGDSVSSNSAAWNWIRQSPSRGLEWLGRTYYRSKWYNDYAVSVKSRITINPDTSKNQFSLQLNSVTPEDTAVYYCARDQWLANYYYYGMDVWGQGTLVTVSSGGGGSGGGGSGGGASSYELTQPLSVSVALGQTARITCGGNNIGSKNVHWYQQKPGQAPVLVIYRDNNRPSGIPERFSGSNSGNTATLTISKAQAGDEADYYCQVWDSNSWVFGGGTKLTVLGQPAA
# notes: as for B1
# B9: CP_03_F09 (scFv, not shown: small tags and cut ends)
# scFv: QMQLVQSGAEVKKPGASVKVSCKASGYTFASYYMHWVRQAPGQGLEWMGIINPSGGSTSYAQKFQGRVTMTRDTSTSTVYMELSRLRSDDTAVYYCASNRGGSYKSVGMDVWGQGTTVTVSSGGGGSGGGGSGGGASNFMLTQPQSVSESPGKTVTISCTRSSGNFASKYVQWYQQRPGSSPTTVIYENYQRPSGVPDRFSGSIDSSSNSATLTISGLKTEDEADYYCQSYDEVSVVFGGGTQLTVLGQPAA
# notes: as for B1
# B10: CP_03_D09 (scFv, not shown: small tags and cut ends)
# scFv: EVQLVQSGAEVKKPGSSVKVSCEASGYTFTSYAISWVRQAPGQGLEWMGWMNPNSGNTGYAQKFQGRVTMTRNTSISTAYMELSSLRSEDTAVYYCARVSSYYGMDVWGQGTLVTVSSGGGGSGGGGSGGGASNFMLTQPLSVSESPGKTVTISCTRSSGSIASNYVQWYQQRPGSAPTTVIYEDNQRPSGVPDRFSGSIDSSSNSASLTISGLKTEDEADYYCQSYNSSNHWVFGGGTKVTVLGQPAA
# notes: as for B1
# B11: CP_01_E09 (scFv, not shown: small tags and cut ends)
# scFv: QVQLVESGGGVVQPGRSLRLSCAASGFTFSSYAMHWVRQAPGKGLEWVAVISYDGSNKYYADSVKGRFTISRDNSKNTLYLQMNSLRAEDTAVYYCARAHNSSSWSFDYWGQGTLVTVSSGGGGSGGGGSGGGASDIQMTQSPSSLSASVGDRVTITCRASQSISSYLNWYQQKPGKAPKLLIYDASNLETGVPSRFSGSGSGTDFTFTISSLQPEDIATYYCQQYDNLPLTFGGGTKVDIKRTAAA
# notes: as for B1
# B12: CP_01_D12 (scFv, not shown: small tags and cut ends)
# scFv: EVQLLESGGGVVQPGRSLRLSCAASGFTFSSYAMHWVRQAPGKGLEWVAVISYDGSNKYYADSVKGRFTISRDNSKNTLYLQMNSLRAEDTAVYYCAKGGDTYGFLDNWGQGTMVTVSSGGGGSGGGGSGGGASDIQMTQSPSTLSASVGDRVTITCRASQSISSWLAWYQQKPGKAPKLLIYKASSLESGVPSRFSGSGSGTDFTLTISSLQPEDFATYYCQQFNAYPLTFGGGTKVEIKRTAAA
# notes: as for B1
# B13: CP_01_D10 (scFv, not shown: small tags and cut ends)
# scFv: QVQLVESGGGLVQPGRSLRLSCAASGFTFSSYAMHWVRQAPGKGLEWVAVISYDGSSKYYADSVKGRFTISRDNSKNTLYLQMNSLRAEDTAVYYCAKGGGSFGAFDIWGQGTLVTVSSGGGGSGGGGSGGGASDIQMTQSPSSLSASVGDRVTITCRASQSISRYLNWYQQKPGKAPNLLIYAASSLQSGVPSRFSGSGSGTDFTLTISSLQPEDFATYYCQQYNSYPLTFGGGTKLEIKRTAAA
# notes: as for B1
# B14: CP_01_C08 (scFv, not shown: small tags and cut ends)
# scFv: EVQLLESGGGAVQPGRSLRLSCAASGFTFSSYAMHWVRQAPGKGLEWVAVISYDGSNKYYADSVKGRFTISRDNSKNTLYLQMNSLRAEDTAVYYCASGYSSSWYLDYWGQGTLVTVSSGGGGSGGGGSGGGASDIQMTQSPSSVSASVGDRVTITCQASQDISNYLNWYQQKPGKAPKLLIYDASNLETGVPSRFSGSGSGTDFTFTISSLQPEDIATYYCQQYDNLPLTFGGGTKVEIKRTAAA
# notes: as for B1
# B15: CP_01_C11 (scFv, not shown: small tags and cut ends)
# scFv: QVQLVESGAEVKKPGASVKVSCKASGYTFTGYYMHWVRQAPGQGLEWMGRINPNSGGTNYAQKFQGRVTMTRDTSISTAYMELSRLRSDDTAVYYCASGGAGWNWGQGTMVTVSSGGGGSGGGGSGGGASNFMLTQPHSVSESPGKTATISCTRSSGSIASNYVQWYQQRPGSAPTTVIYEDNQRPFGVPDRFSGSIDSSSNSASLTISGLKTEDEADYYCQSHDSSNVVFGGGTQLTVLGQPAA
# notes: as for B1
# B16: CP_01_E07 (scFv, not shown: small tags and cut ends)
# scFv: QVQLVESGGGVVQPGRSLRLSCAASGFTFSSYGMHWVRQAPGKGLEWVAVISYDGSNKYYADSVKGRFTISRDNSKNTLYLQMNSLRAEDTAVYYCAKDLGGSGGAFDIWGQGTLVTVSSGGGGSGGGGSGGGASDIVMTQTPHSLSVTPGQPASISCKSSQSLLYSDGKTYLYWYLQKPGQPPQLLIYEVSNRFSGVPDRFSGSGSGTDFTLKISRVEAEDVGVYYCMQSIQLYTFGQGTKVDIKRTAAA
# notes: as for B1
# B17: CP_01_D03 (scFv, not shown: small tags and cut ends)
# scFv: QVQLVESGGGVVQPGRSLRLSCAAPGFTFSSYGMHWVRQAPGKGLEWVAVISYDGSNKYYADSVKGRFTISRDNSKNTLYLQMNSLRAEDTAVYYCARNKQYGMDVWGQGTLVTVSSGGGGSGGGGSGGGASDIVMTQSPATLSLAPGERATLSCRASQSVGSNLAWYQQKPGQAPSLLIYDASTRATGIPARFSGSGSGTDFTLTISSLQSEDIAVYYCQQYHRWPLTFGGGTKVEIKRTAAA
# notes: as for B1
# B18: CP_01_F06 (scFv, not shown: small tags and cut ends)
# scFv: EVQLLESGGGVVQPGRSLRLSCAASGFTFSSYGMHWVRQAPGKGLEWVAVISYDGSNKYYADSVKGRFTISRDNSKNTLYLQMNSLRAEDTAVYYCAKDDGAMRYWGQGTMVTVSSGGGGSGGGGSGGGASDIQMTQSPDSLAVSLGERATINCKSSQSVLYSSNNKNYLAWYQQKPGQPPKLLIYWASTRESGVPDRFSGSGSGTDFTLTISSLQAEDVAVYYCQQYYDSPYTFGQGTKVDIKRTAAA
# notes: as for B1
# B19: CP_01_F02 (scFv, not shown: small tags and cut ends)
# scFv: QVQLVESGGGVVQPGRPLRLSCAASGFTFSSYAMHWVRQAPGKGLEWVAVISYDGSNKYYADSVKGRFTISRDNSKNTLYLQMNSLRAEDTAVYYCARAGYSYADYWGQGTMVTVSSGGGGSGGGGSGGGASDIQMTQSPSSLSASVGDRVTITCRASQGIRNDLGWYQQKPGKAPKRLIYAASSLQSGVPSRFSGSGSGTEFTLTISSLQPEDFATYYCLQHNSYPLTFGGGTKVDIKRTAAA
# notes: as for B1
# Biological target: T1, TRBC2 peptide (biotinylated)
# Assay: TRF assay, scFv on biotin-peptide/neutravidin plate
# Experimental: (§1) The scFv populations from round-2 and round-3 selection outputs were sub-cloned into the pSANG10-3F expression vector and transformed into E. coli BL21 (DE3) cells. 1128 individual transformants (564 clones/TRBC peptide) were picked into 12×96 well culture plates (94 clones/plate) and antibody expression was induced using autoinduction media. Recombinant monoclonal antibodies secreted into culture supernatant after overnight induction were tested for binding to biotinylated TRBC1 and TRBC2 immobilised on neutravidin coated Nunc Maxisorp™ 96 well plates.
row,Binder,TRBC2 binding [TRF units]
1,B1,217000
2,B2,213000
3,B3,168000
4,B4,167000
5,B5,152000
6,B6,143000
7,B7,140000
8,B8,139000
9,B9,132000
10,B10,129000

# Biological target: T2, TRBC1 peptide (biotinylated)
# Assay: as above
# Experimental: as §1
row,Binder,TRBC1 binding [TRF units]
1,B11,403000
2,B12,393000
3,B13,371000
4,B14,353000
5,B15,349000
6,B16,332000
7,B17,328000
8,B18,325000
9,B19,302000
